Source: US9777044B2, “GLUT-1 as a receptor for HTLV envelopes and its uses” (CENTRE NATIONAL DE LA RECHERCHE SCIENTIFIQUE (CNRS), priority 2003, dated 2017)
Positions count from the first letter of the chain named. Names and notes keep the numbering of the source.

Experiments:
293T cells [1] = assay: Hexose uptake assay: 2-deoxyglucose; type: cell-based, human; settings: for glucose uptake in presence of glucose transporter inhibitors: control 293T cells, 20 μM cytochalasin B, 300 μM phloretin
Protocol: (§1) Assay of hexose uptake. 2-deoxy-D[1-^3H]glucose, D[U-^14C]fructose and 3-O-[^14C]methyl-D-glucose were obtained from Amersham. Hexose uptake assay were adapted from Harrison et al. 1991). After transfection, approximately 250,000 were seeded/well in 24-well plates. […] Uptake was initiated by adding labeled hexoses to a final concentration of 0.1 mM (2 μCi/ml for 2-2-deoxy-D[1-^3H]glucose and 0.2 μCi/ml for D[U-^14C]fructose and 3-O-[^14C]methyl-D-glucose) and cells were incubated for 5′ additional minutes. Cells were then resuspended in 500 μl cold serum-free glucose-free DMEM, wash one time in serum-free glucose-free DMEM, and solubilized in 400 μl of 0.1% SDS. 3 μl was used for Bradford normalization, while the rest was used for detection of either ^3H or ^14C by liquid scintillation in a Beckman counter.

PiT2 [2] = assay: Colocalization with PiT2 by fluorescence microscopy; type: cell-based
GLUT-1 [3] = molecular target: T1, GLUT-1 (Homo sapiens, UniProt P11166); assay: Colocalization with GLUT-1 by fluorescence microscopy; type: cell-based
T1 construct: factor Xa cleavage site (C); His (C); expressed in transfected cells
T1 sequence (P11166 1-492): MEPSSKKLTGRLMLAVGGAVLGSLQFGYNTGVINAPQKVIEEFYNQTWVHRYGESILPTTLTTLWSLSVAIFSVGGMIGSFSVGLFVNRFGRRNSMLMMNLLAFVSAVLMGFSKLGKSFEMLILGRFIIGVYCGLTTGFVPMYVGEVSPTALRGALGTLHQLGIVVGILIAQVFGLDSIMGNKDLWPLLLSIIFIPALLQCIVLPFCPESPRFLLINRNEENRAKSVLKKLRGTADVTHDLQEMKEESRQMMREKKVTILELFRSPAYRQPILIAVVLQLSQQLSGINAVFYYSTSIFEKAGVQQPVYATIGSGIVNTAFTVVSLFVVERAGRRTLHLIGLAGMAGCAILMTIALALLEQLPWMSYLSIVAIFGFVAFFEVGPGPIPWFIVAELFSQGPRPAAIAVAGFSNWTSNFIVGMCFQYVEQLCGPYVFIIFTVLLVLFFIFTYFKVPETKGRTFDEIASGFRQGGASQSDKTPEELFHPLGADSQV
Source text: (§2) In order to directly test the ability of HTLV envelopes to bind GLUT-1, we derived a tagged GLUT-1 expression vector and overexpressed this protein in HeLa cells. […] GLUT-3 is the closest isoform to GLUT-1, and transports glucose with kinetics similar to that of GLUT-1. Thus, we derived a tagged GLUT-3 expression vector. […] To determine if GLUT-1 transfected cells were directly responsible for the observed increased in H1RBD binding, we derived fluorescent tagged GLUT-1 and GLUT-3 to uniquevocally identity GLUT-overexpressing cells in the course of our FACS analysis. […] Consequently, we tested if HTLV glycoproteins directly interact with GLUT-1 proteins. To this end, we evaluated the ability of H1RBD to immunoprecipitate GLUT-1. […] Therefore, the GLUT-1 glucose transporter is an essential component of the HTLV envelope receptor.

293T cells [4] = assay: Medium acidification after transfection of envelope expression vectors; type: cell-based, human; settings: 293T cells transfected with envelope expression vector; phenol-red pH indicator
[5] = test system: MLV particles pseudotyped with A-MLV envelopes; assay: Interference to infection by A-MLV envelope pseudotyped MLV particles; type: cell-based; settings: 293T cells transfected with H2RBD expression vector
Source text: (§3) Viral receptor permits entry and thus infection. No cellular system currently exists that lacks GLUT-1 expression. […] In this system, over-expression of HTLV-2 RBD interferes with infecting incoming HTLV particles and specifically decreases HTLV titers by at least 2 logs, while no effect is detected on control A-MLV titers. To determine if GLUT-1 is an entry receptor for HTLV, we overexpressed GLUT-1, GLUT-3 or Pit2 in addition to the interfering H2RBD. While Pit2 and GLUT-3 had no effect on HTLV titers, GLUT-1 completely alleviated the interference to infection induced by H2RBD (FIG. 5). […] Thus, GLUT-1 is an entry receptor for HTLV.
(§4) Infections. 293T cells were transfected in 6-wells plate, and one day after transfection, medium was replaced by high glucose DMEM supplemented with fructose (5 g/l) and non-essential amino acids. The next day, infection was initiated by adding supernatants containing MLV particles pseudotyped with either HTLV-2 or A-MLV envelopes. The following day, fresh medium was added, and 24 hours later cells were fixed and stained for alkaline phosphatase activity and dark focus of infection were counted. Viral particles were obtained by transfecting 293T cells with pLAPSN, pGagPol and either pCSIX.H2 or pCSI.A, and harvesting the 0.45 μm-filtered supernatants 24 hours later.

GLUT-1 [6] = molecular target: T1, GLUT-1; assay: RBD binding to cells overexpressing GLUT-1; settings: tagged GLUT-1 expression vector, HeLa cells / 293T cells (FIG. 4a legend)
Source text: as §2
Expression vectors. Full length envelope expression vectors for HTLV-1 (pCEL/2[Denesvre, 1995]) and Friend ecotropic MLV (pCEL/F [Denesvre, 1995]), have been previously described. For the HTLV-2 envelope, a fragment from pHTE2 [Rosenberg, 1998] encompassing the tax, rex and env genes and the 3′ LTR was inserted in the pCSI [Battini, 1999] vector (pCSIX.H2). Full length envelope expression vectors for amphotropic MLV (pCSI.A), or devoid of its R peptide (pCSI.AΔR), and H183FEnv that contains the N-terminal 183 amino acids of the HTLV-1 receptor-binding domain in the F-MLV envelope background, as well as truncated envelope expression vectors, derived from pCSI and encoding either of the first 215 residues of HTLV-1 SU (H1RBD), the first 178 residues of HTLV2-SU (H2RBD) or the first 397 residues of the amphotropic murine leukemia virus (MLV) SU (Amp), fused to a C-terminal rabbit IgG Fc tag (rFc) or to EGFP (H2RBD-GFP). All point mutations introduced in HTLV-1 and -2 RBD constructs were generated using the quickchange site-directed mutagenesis method and mutations were verified by sequencing. Human Glut-1 and Glut-3 cDNA were amplified by PCR from the pLib HeLa cDNA library (Clontech), and inserted into pCHIX, a modified version of the pCSI vector that contains a cassette comprising a factor Xa cleavage site, two copies of the hemagglutinin (HA) tag, and a histidine tag. The resulting construct (pCHIX.hGLUT1) encodes a GLUT-1 protein with a HA-His tag at the C-terminal end. GLUT-1 and GLUT-3 were also inserted in a modified pCSI vector containing a DsRed2 C-terminal tag. Similarly, human CD147 was amplified from 293T total RNA by RT-PCR and inserted into the pCHIX backbone in frame with the HA-His tag (pCHIX.hCD147).
Binding assays. […] Binding was analyzed on a FACSCalibur (Becton Dickinson) and data analysis was performed using CellQuest (Becton Dickinson) and WinMDI (Scripps) softwares.

[7] = test system: MLV particles pseudotyped with HTLV-2 envelopes; assay: Interference to infection by HTLV-2 envelope pseudotyped MLV particles; type: cell-based; settings: 293T cells transfected with H2RBD expression vector
Source text: as §3, §4

PiT2 [8] = assay: RBD binding to cells overexpressing PiT2
293T cells [9] = assay: Hexose uptake assay: fructose; type: cell-based, human; settings: transfected 293T cells
Protocol: as §1

293T cells [10] = assay: Extracellular lactate in culture medium of transfected cells; type: cell-based, human; settings: medium of 293T cells one day post transfection
Protocol: Envelope expression and metabolic measurements. 293T cells were transfected with the various envelope expression vectors using a modified version of the calcium phosphate method. After an overnight transfection, cells were washed in phosphate-buffered saline (PBS) and fresh medium was added. Media were harvested at the indicated time points, filtered through a 0.45-μm pore-size filter, and lactate and glucose were measured with enzymatic diagnostic kits (Sigma). Values were normalized to cellular protein content using the Bradford assay (Sigma) after solubilization of cells in lysis buffer (50 mM Tris-HCl pH 8.0, 150 mM NaCl, 0.1% sodium dodecyl sulfate, 1.0% Nonidet P-40, 0.5% deoxycholate) and clarification by centrifugation.

HTLV receptor = molecular target: T2, HTLV receptor (Homo sapiens, UniProt P11166); assay: FACS binding assay of RBD and mutants on HeLa cells
T2 construct: endogenous in cells; host or cells: HeLa cells
T2 sequence (P11166 1-492): T1 sequence (P11166 1-492)
Protocol: Binding assays. Binding assays were carried out as previously described [Manel, 2003]. Briefly, 5×10^5 cells (293T, HeLa, Jurkat or freshly isolated human erythrocytes) were incubated with 500 μl of H1RBD, H2RBD or ARBD supernatants for 30 min at 37° C., washed with PBA (1% BSA, 0.1% sodium azide in PBS), and incubated with a sheep anti-rabbit IgG antibody conjugated to fluorescein isothiocyanate (Sigma). […] Binding was analyzed on a FACSCalibur (Becton Dickinson) and data analysis was performed using CellQuest (Becton Dickinson) and WinMDI (Scripps) softwares.

GLUT-1 [11] = molecular target: T1, GLUT-1; assay: Immunoprecipitation of GLUT-1-HA with anti-rabbit-Fc beads; type: binding; settings: co-expression with GLUT-1 in 293T cells, probed with anti-HA antibody
Source text: FIGS. 4a-4c GLUT-1 is a receptor for HTLV envelopes. FIG. 4a, Binding of H1RBD, H2RBD, H2RBD D102A mutant, and ARBD to control 293T cells or 293T cells overexpressing either GLUT-1 or PiT2. FIG. 4b, Binding of H2RBD-EGFP to cells overexpressing GLUT-1-HA or GLUT-3-HA, and corresponding immunoblots using an anti-HA antibody. FIG. 4c, Immunoprecipitation of GLUT-1-HA from 293T cells transfected with either an irrelevant construct, GLUT-1 alone, H1RBD alone, H1RBD Y114A alone, GLUT-1 with H1RBD or GLUT-1 with H1RBD Y114A expression vectors Immunoprecipitation was performed using anti-rabbit-Fc beads and probed with an anti-HA antibody. Total cell extracts were blotted using an anti-rabbit Fc or an anti-HA antibody.
In order to directly test the ability of HTLV envelopes to bind GLUT-1, we derived a tagged GLUT-1 expression vector and overexpressed this protein in HeLa cells. […] GLUT-3 is the closest isoform to GLUT-1, and transports glucose with kinetics similar to that of GLUT-1. Thus, we derived a tagged GLUT-3 expression vector. […] To determine if GLUT-1 transfected cells were directly responsible for the observed increased in H1RBD binding, we derived fluorescent tagged GLUT-1 and GLUT-3 to uniquevocally identity GLUT-overexpressing cells in the course of our FACS analysis. […] To this end, we evaluated the ability of H1RBD to immunoprecipitate GLUT-1. […]

C=C1[C@@H](C)[C@H]2[C@H](Cc3ccccc3)NC(=O)[C@]23OC(=O)/C=C/[C@H](O)CCC[C@@H](C)C/C=C/[C@H]3[C@@H]1O [cytochalasin B, reference compound]
glucose uptake in presence of glucose transporter inhibitors (293T cells [1]): inhibited glucose uptake

O=C(CCc1ccc(O)cc1)c1c(O)cc(O)cc1O [phloterin, phloretin, reference compound]
glucose uptake in presence of glucose transporter inhibitors (293T cells [1]): inhibited glucose uptake

GFP-tagged HTLV-2 RBD
colocalization with PiT2 (PiT2 [2]): not with PiT2
colocalization with GLUT-1 (GLUT-1 [3]): colocalized with GLUT-1

HTLV-2 Env: full length syncytial wild-type HTLV-2 envelope (pCSIX.H2) (MKWVTFISLLFLFSSAYS)
medium acidification (293T cells [4]): did not readily acidify

B1: H2RBD: first 178 residues of HTLV2-SU fused to a C-terminal rabbit IgG Fc tag (rFc) (protein)
chain: VDVPRDCGCKPCICTVPEVSSVFIFPPKPKDVLTITLTPKVTCVVVDISKDDPEVQFSWFVDDVEVHTAQTQPREEQFNSTFRSVSELPIMHQDWLNGKEFKCRVNSAAFPAPIEKTISKTKGRPKAPQVYTIPPPKEQMAKDKVSLTCMITDFFPEDITVEWQWNGQPAENYKNTQPIMDTDGSYFVYSKLNVQKSNWEAGNTFTCSVLHEGLHNHHTEKSLSHSPGK
effect on control A-MLV titers [5]: no effect
binding upon GLUT-1 overexpression (GLUT-1 [6]): dramatically increased
decrease in 2-deoxyglucose uptake (293T cells [1]; transfected 293T cells vs control cells): approximately 4 fold
decrease of HTLV titers by over-expression of interfering RBD [7]: at least 2 logs
binding upon overexpression of PiT2 (PiT2 [8]): remained at background levels
Fructose uptake (293T cells [9]): not altered

B2: D106A (protein)
chain: DYSPSCCTLTIGVSSYHSKPCNPAQPVCSWTLDLLALSADQALQPPCPNLVSYSSYHATYSLYLFPHWIKKPNRNGGGYYSASYSAPCSLKCPYLGCQSWTCPYTGAVSSPYWKFQQDVNFTQEVSRLNINLHFSKCGFPFSLLVDAPGYDPIWFLNTEPSQLPPTAPPLLPHSNLDHILEPSIPWKSKLLTLVQ
binding upon GLUT-1 overexpression (GLUT-1 [6]): did not bind GLUT-1
lactate accumulation in cells expressing RBD mutant (293T cells [10]): minimally reduced
binding to the HTLV receptor as detected by FACS analysis (HTLV receptor): significantly reduced

B3: Y114A (protein)
chain: B2 chain with A86D, Y94A
detection of GLUT-1 upon immunoprecipitation with anti-rabbit-Fc-beads (GLUT-1 [11]): could not be detected
lactate accumulation in cells expressing RBD mutant (293T cells [10]): not reduced
binding to the HTLV receptor as detected by FACS analysis (HTLV receptor): non-detectable
